Key:
[1] = target: T1, Anti-CD28 Fab (SEQ ID NOs: 696, 697); experiment: phage binding ELISA; Fab-coated wells pre-incubated with CD28 antigen as competitor, phage detected with anti-M13-HRP
T1 construct: In the phage ELISA the Fab was biotinylated and captured on neutravidin coated plates
T1 sequence (VH, as listed by the source, chain 1 of 2): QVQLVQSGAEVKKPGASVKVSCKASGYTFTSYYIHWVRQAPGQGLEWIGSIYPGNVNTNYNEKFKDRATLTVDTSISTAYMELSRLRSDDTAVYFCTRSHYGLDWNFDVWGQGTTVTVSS
T1 sequence (VL, as listed by the source, chain 2 of 2): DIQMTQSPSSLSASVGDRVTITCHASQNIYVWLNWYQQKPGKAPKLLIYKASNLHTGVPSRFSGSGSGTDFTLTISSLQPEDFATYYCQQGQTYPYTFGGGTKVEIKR
Procedure: (§1) Clonal phage were harvested as crude supematants and screened via standard ELISAs. […] Prior to the addition of clonal phage, wells were incubated with blocking buffer and CD28 antigen or blocking buffer alone. Without washing or aspirating, clonal phage supematants were then added to the wells and incubated for a short time. Wells were then washed followed by detection of bound phage using a horse radish conjugated anti-M13 antibody. Clonal phage of interest were then sent for sequence analysis.

[2] = target: T1, Anti-CD28 Fab (SEQ ID NOs: 696, 697); experiment: phage binding ELISA; biotinylated anti-CD28 Fab on neutravidin plate, clonal phage detected with anti-M13-HRP;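 further: crude clonal phage supernatants added briefly to wells preincubated in blocking buffer with or without CD28 antigen, then washed before detection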
Procedure: as §1

[3] = target: Anti-CD28 Fab (SEQ ID NOs: 696, 697); experiment: phage binding ELISA; biotinylated anti-CD28 Fab on neutravidin plate, clonal phage supernatant, anti-M13 HRP detection;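 further: wells pretreated with blocking buffer, either plus or minus CD28 antigen, then given crude phage supernatant briefly without washing in between, then washed before anti-M13 HRP readout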
Target sequence in this assay (VH, as listed by the source, chain 1 of 2): as the sequence (VH, as listed by the source, chain 1 of 2) above
Target sequence in this assay (VL, as listed by the source, chain 2 of 2): as the sequence (VL, as listed by the source, chain 2 of 2) above
Procedure: (§2) Clonal phage were harvested as crude supematants and screened via standard ELISAs. […] Prior to the addition of clonal phage, wells were incubated with blocking buffer and CD28 antigen or blocking buffer alone. Without washing or aspirating, clonal phage supematants were then added to the wells and incubated for a short time. Wells were then washed followed by detection of bound phage using a horse radish conjugated anti-M13 antibody.

[4] = target: Anti-CD28 Fab (SEQ ID NOs: 696, 697); experiment: phage binding ELISA; Fab-coated wells pre-incubated with saturating CD28 antigen as competitor, anti-M13 HRP detection
Target sequence in this assay (VH, as listed by the source, chain 1 of 2): as the sequence (VH, as listed by the source, chain 1 of 2) above
Target sequence in this assay (VL, as listed by the source, chain 2 of 2): as the sequence (VL, as listed by the source, chain 2 of 2) above
Procedure: as §2

[5] = target: T2, Anti-PSMA Fab (SEQ ID NOs: 19, 20); experiment: phage binding ELISA on captured anti-PSMA Fab; PSMA antigen as competitor
T2 construct: Biotinylated and captured on neutravidin coated plates in the phage ELISA; also called 006 PSMA Fab
Procedure: (§3) Clonal phage were harvested as crude supernatants and screened via standard ELISAs. […] Prior to the addition of clonal phage. wells were incubated with blocking buffer and PSMA antigen or blocking buffer alone. Without washing or aspirating, clonal phage supernatants were then added to the wells and incubated for a short time. Wells were then washed followed by detection of bound phage using a horse radish conjugated anti-M13 antibody.

[6] = target: T2, Anti-PSMA Fab (SEQ ID NOs: 19, 20); experiment: phage binding ELISA; biotinylated anti-PSMA Fab captured on neutravidin, bound phage detected with anti-M13 HRP
Procedure: as §3

[7] = target: T3, Anti-PSMA Fab (SEQ ID NOs: 19, 20); experiment: phage binding ELISA on PSMA Fab coated plates; competitor: PSMA antigen
T3 construct: Biotinylated Fab captured on neutravidin coated plates in the phage ELISA; also called 006 PSMA Fab
Procedure: as §3

[8] = target: T3, Anti-PSMA Fab (SEQ ID NOs: 19, 20); experiment: phage binding ELISA; clonal phage on biotinylated PSMA Fab captured on neutravidin plates, anti-M13 HRP detection
Procedure: as §3

Binder	Anti-CD28 Fab signal in the presence of CD28 [1]	Anti-CD28 Fab (SEQ ID NOs: 696, 697) signal [2]	Anti-PSMA Fab signal in the presence of PSMA [7]	Anti-PSMA Fab (SEQ ID NOs: 19, 20) signal [8]	also measured
RCKAGVPYKWPMCL (Peptide-92 library clone) [Phage-1680]	0.06	0.87	–	–	–
LCAAGFMYEWPLCF (also called Peptide-92 library clone) [Phage-1590]	–	–	–	–	Anti-CD28 Fab (SEQ ID NOs: 696, 697) signal [3]: 1.4; Anti-CD28 Fab signal in the presence of CD28 [4]: 0.06
ISKWCIPEWMCTSP [Phage-1787 (clonal phage displaying the peptide of SEQ ID NO: 2083)]	–	–	–	–	Anti-PSMA Fab signal in the presence of PSMA [5]: 0.107; Anti-PSMA Fab (SEQ ID NOs: 19, 20) signal [6]: 1.73
MCAAGAAWAWPLCL (also called Peptide-92 library clone) [Phage-1588]	–	–	–	–	Anti-CD28 Fab (SEQ ID NOs: 696, 697) signal [3]: 1.4; Anti-CD28 Fab signal in the presence of CD28 [4]: 0.07
GEKWCIPDWMCSGF [Phage-1783 (clonal phage displaying the peptide of SEQ ID NO: 2079)]	–	–	–	–	Anti-PSMA Fab signal in the presence of PSMA [5]: 0.148; Anti-PSMA Fab (SEQ ID NOs: 19, 20) signal [6]: 1.91
TCAAGAKYVWPLCF (Peptide-92 library clone) [Phage-1682]	0.12	0.85	–	–	–
LTKLCIPDWMCSEF [Phage-1776 (clonal phage displaying the peptide of SEQ ID NO: 2072)]	–	–	–	–	Anti-PSMA Fab signal in the presence of PSMA [5]: 0.0876; Anti-PSMA Fab (SEQ ID NOs: 19, 20) signal [6]: 2.07
IDKLCIPFWMCENL [Phage-1771]	–	–	0.0699	2.16	–
LCEAGFNYDWPRCL (Peptide-92 library clone) [Phage-1683]	0.07	0.85	–	–	–
WEKLCTPAWMCVGF [Phage-1764]	–	–	0.105	2.44	–
FEKWCTPPWMCSLF [Phage-1772]	–	–	0.203	2.11	–
TCSAGAMYSWPLCI (Peptide-92 library clone) [Phage-1677]	0.08	0.91	–	–	–
LDKWCVPKWMCSGL [Phage-1782 (clonal phage displaying the peptide of SEQ ID NO: 2078)]	–	–	–	–	Anti-PSMA Fab signal in the presence of PSMA [5]: 0.0742; Anti-PSMA Fab (SEQ ID NOs: 19, 20) signal [6]: 1.92
DVKLCKPEWMCYGL [Phage-1786 (clonal phage displaying the peptide of SEQ ID NO: 2082)]	–	–	–	–	Anti-PSMA Fab signal in the presence of PSMA [5]: 0.0637; Anti-PSMA Fab (SEQ ID NOs: 19, 20) signal [6]: 1.75
LEKLCIPAWMCEWL [Phage-1765]	–	–	0.184	2.4	–
HCEFHDYQSCDVLY [Phage-1761]	–	–	0.126	1.89	–
QCAAGFSYTWPECY (Peptide-92 library clone) [Phage-1678]	0.11	0.9	–	–	–
HCKFHDYHSWYVCY [Phage-1762]	–	–	0.0994	2.31	–
TCAAGATWVWPTCF (Peptide-92 library clone) [Phage-1675]	0.07	0.92	–	–	–
TCAAGASWDWPFCF (Peptide-92 library clone) [Phage-1684]	0.08	0.82	–	–	–
ECGWEPGQHWRVCF (Peptide-92 library clone) [Phage-1685]	0.06	0.82	–	–	–
SCAAGATYEWPTCL (Peptide-92 library clone) [Phage-1686]	0.07	0.81	–	–	–
WCAAFFHYPWPQCF (Peptide-92 library clone) [Phage-1679]	0.05	0.87	–	–	–

Binder	Anti-CD28 Fab signal in the presence of CD28 [1]	Anti-CD28 Fab (SEQ ID NOs: 696, 697) signal [2]	Anti-PSMA Fab signal in the presence of PSMA [7]	Anti-PSMA Fab (SEQ ID NOs: 19, 20) signal [8]	also measured
DLRLCKPAWMCDFI [Phage-1781 (clonal phage displaying the peptide of SEQ ID NO: 2077)]	–	–	–	–	Anti-PSMA Fab signal in the presence of PSMA [5]: 0.0601; Anti-PSMA Fab (SEQ ID NOs: 19, 20) signal [6]: 1.95
VLKWCRPAWMCEVL [Phage-1766]	–	–	0.219	2.38	–
VGKLCVPEWMCVGL [Phage-1767]	–	–	0.063	2.25	–
TCAAGATYEWPSCI (Peptide-92 library clone) [Phage-1681]	0.09	0.86	–	–	–
TCAAGASYPWPLCV (also called Peptide-92 library clone) [Phage-1589]	–	–	–	–	Anti-CD28 Fab (SEQ ID NOs: 696, 697) signal [3]: 1.4; Anti-CD28 Fab signal in the presence of CD28 [4]: 0.06
DLRLCKPAWMCYFI [Phage-1773]	–	–	0.0751	2.11	–
VEKLCTPIWMCLGF [Phage-1785 (clonal phage displaying the peptide of SEQ ID NO: 2081)]	–	–	–	–	Anti-PSMA Fab signal in the presence of PSMA [5]: 0.0705; Anti-PSMA Fab (SEQ ID NOs: 19, 20) signal [6]: 1.84
VVKACIPTWMCQFV [Phage-1779 (clonal phage displaying the peptide of SEQ ID NO: 2075)]	–	–	–	–	Anti-PSMA Fab signal in the presence of PSMA [5]: 0.0901; Anti-PSMA Fab (SEQ ID NOs: 19, 20) signal [6]: 2.02
EFKWCIPSWMCHET [Phage-1778 (clonal phage displaying the peptide of SEQ ID NO: 2074)]	–	–	–	–	Anti-PSMA Fab signal in the presence of PSMA [5]: 0.0857; Anti-PSMA Fab (SEQ ID NOs: 19, 20) signal [6]: 2.02
LCQWYPKFHWMDCD (also called Peptide-210) [Phage-1760]	–	–	0.0695	0.611	–
WCSAVFSYQWPPCF (Peptide-92 library clone) [Phage-1689]	0.06	0.78	–	–	–
SCSAGAMWLWPECF (Peptide-92 library clone) [Phage-1688]	0.06	0.8	–	–	–
VTKWCIPPWMCEVT (also called Peptide-230) [Phage-1780 (clonal phage displaying the peptide of SEQ ID NO: 2076)]	–	–	–	–	Anti-PSMA Fab signal in the presence of PSMA [5]: 0.0864; Anti-PSMA Fab (SEQ ID NOs: 19, 20) signal [6]: 2
LCEWWTSHVDAWCA [Phage-1763]	–	–	0.184	0.575	–
EGIRCTPIWMCEGF [Phage-1774]	–	–	0.0778	2.09	–
SCAAGATYKWPACF (Peptide-92 library clone) [Phage-1687]	0.06	0.8	–	–	–
LEKTCIPTWMCVGF [Phage-1784 (clonal phage displaying the peptide of SEQ ID NO: 2080)]	–	–	–	–	Anti-PSMA Fab signal in the presence of PSMA [5]: 0.0732; Anti-PSMA Fab (SEQ ID NOs: 19, 20) signal [6]: 1.88
FVPLCKPAWMCSFV [Phage-1768]	–	–	0.111	2.2	–
FEKLCVPKWMCEGI (also called Peptide-220) [Phage-1770]	–	–	0.0601	2.17	–
TCSAGAMYNWPECF (Peptide-92 library clone) [Phage-1676]	0.08	0.92	–	–	–
HVKLCKPAWMCQGL [Phage-1769]	–	–	0.0831	2.18	–
LDNWCKPSWMCTGF [Phage-1777 (clonal phage displaying the peptide of SEQ ID NO: 2073)]	–	–	–	–	Anti-PSMA Fab signal in the presence of PSMA [5]: 0.0633; Anti-PSMA Fab (SEQ ID NOs: 19, 20) signal [6]: 2.05
IPKSCIPSWMCTGF [Phage-1775 (clonal phage displaying the peptide of SEQ ID NO: 2071)]	–	–	–	–	Anti-PSMA Fab signal in the presence of PSMA [5]: 0.101; Anti-PSMA Fab (SEQ ID NOs: 19, 20) signal [6]: 2.08

— patent US20260242478A1 (published 2026)
